Test results: patent publication US10407488B2, “Therapy for treatment or prevention of conditions associated with bleeding or hypocoagulation” (THE REGENTS OF THE UNIVERSITY OF CALIFORNIA, priority 2013, dated 2019)
“And” between values parts separate entries of the source, which are not always exact repeats. Equal values may be shown once.

Key:
[1] = system: thrombin generation in normal human plasma; assay: Thrombin generation in NHP in the presence of rivaroxaban or apixaban; assay type: biochemical; conditions: dose titration in NHP
Procedure: Thrombin generation or Endogenous Thrombin Potential (ETP) assays were performed as described. Briefly, plasma samples supplemented with CTI, TF, PCPS were preincubated […] in the presence or absence of rivaroxaban, apixaban, Kcentra®, NovoSeven® or ^superFVa. Thrombin generation was initiated by addition of CaCl2 and Z-Gly-Gly-Arg-AMC in HBS/0.5% BSA. The final reaction mixture contained, 50% plasma, 0.725 μM CTI, 0.2 Pm TF, 4 μM PCPS vesicles, 0.5 mM Z-GGR-AMC, 7.6 mM CaCl2 in a total volume of 100 μl. Concentrations of rivaroxaban, apixaban, Kcentra®, NovoSeven® or ^superFVa are indicated in the result section and in the figure legends. Fluorescence was measured at excitation/emission wavelengths of […] using Gemini EM fluorescent plate reader (Molecular Devices). Fluorescence time course data were converted to Nm thrombin as described. ETP, defined as the area under the curve (AUC) and the peak height were determined using Origin software.

[2] = system: thrombin generation in normal human plasma with rhAPC; assay: Thrombin generation in normal human plasma in the presence of rhAPC; assay type: biochemical; conditions: human plasma
Procedure: (§1) BU titer values for FVIII antibodies added to FVIII-deficient plasma were determined using a modified Nijmegen Bethesda assay (Barrow and Lollar; JTH 2006, 4:2223-2229). Briefly, antibody was serially diluted in HBS with 0.05% Tween 80 and mixed 1:1 with pooled normal plasma that was supplemented with 100 mM Imidazole, pH 7.0. Samples were incubated at 37° C. for 2 hours then assayed by aPTT with APTT XL reagent (Pacific Hemostasis). A standard curve was derived from a serial dilution of normal plasma into FVIII deficient plasma that was also mixed 1:1 with HBST and incubated at 37° C. for 2 hours. Percent FVIII activity was plotted versus mg/ml of antibody and residual activity of 50% was defined as 1 BU/ml. In addition, endogenous thrombin potential (ETP) assays were performed as described (3). Briefly FVa mutants or saline were added to human or murine plasma (George King Bio-Medical; mouse source, 50% v/v) supplemented with […] corn trypsin inhibitor (Haematologic Technologies), 10 mM CaCl2, 10 μM phospholipid vesicles (80% phosphatidylcholine, 20% phosphatidylserine, prepared as described (6), 0.2 pM soluble tissue factor (Innovin®, Dade Behring), and 0.4 mM Z-Gly-Gly-Arg-AMC (thrombin substrate, Bachem) in HBS. After mixing, 100 μL was transferred to a FluoroNunc microtiter plate at 37° C. to monitor fluorescence (excitation at 360 nm/emission at 460 nm; Gemini EM fluorescent plate reader (Molecular Devices)). Fluorescence time course data were converted to nM thrombin as described (7). ETP, defined as the area under the curve, was determined using Prism 5.04 (Graphpad).
(§2) APC-mediated inactivation of FVa was analyzed in ETP assays and aPTT clotting assays. FVa mutants were incubated with equal volumes of either recombinant human APC (Xigris®) or buffer in human and murine Balb/c plasma.

[3] = system: thrombin generation in murine Balb/c plasma with rhAPC; assay: Thrombin generation in murine Balb/c plasma in the presence of rhAPC; assay type: biochemical, mouse
Procedure: as §1, §2

[4] = system: aPTT clotting time in human plasma; assay: aPTT clotting assay in human plasma with rhAPC; assay type: biochemical; conditions: human plasma
Procedure: as §2
(§3) Plasma (50 μL) was mixed with 50 μL of a PTT reagent (APTT-XL, Pacific Hemostasis) and incubated at 37° C. for 3 minutes in the presence of FVa either with recombinant human APC or buffer. Following addition of 25 μL of 50 mM CaCl2 in HBS, 0.5% BSA, the clotting time was recorded using an ST4 coagulometer (Diagnostica Stago).

[5] = system: aPTT clotting time in murine plasma; assay: aPTT clotting assay in murine plasma with rhAPC; assay type: biochemical, mouse
Procedure: as §2, §3

[6] = system: Balb/c mice; assay: Ex vivo whole blood aPTT after intravenous APC in Balb/c mice; set-up: species or system mouse; conditions: for mean whole blood aPTT clotting time: 2 minutes after intravenous APC 0.5 mg/kg, saline 30 sec
Procedure: Recombinant murine APC was administered intravenously to Balb/c mice by tail vein injection 2 minutes prior to retroorbital blood harvest in siliconized microcapillaries (75 μL) prefilled with 20 μL Sodium-Citrate (3.8%). Whole blood aPTT was performed immediately, whereby 50 μL of blood were mixed with 50 μL of aPTT reagent (APTT-XL, Pacific Hemostasis) and incubated at 37° C. for 3 minutes in the presence of FVa or buffer. Following addition of 25 μL of 130 mM CaCl2 in HBS, 0.5% BSA, the clotting time was recorded using an ST4 coagulometer (Diagnostica Stago).

[7] = system: Balb/c mice; assay: Tail clip bleeding assay, APC-induced bleeding in Balb/c mice; assay type: in vivo, mouse
Procedure: Mice were anesthetized with Isoflurane 3%, placed on temperature controlled heating pads (37° C.), and the distal portion of the tail was cut at 1.5 mm diameter after which the tail was immersed in a predefined volume of 37° C. saline (0.9% NaCl) for 20 minutes. To study effects on bleeding and clot stability, tubes were changed after 10 minutes to collect blood for the first and second 10 minutes separately. Blood loss was determined by the hemoglobin concentration in the saline solution after red cell lysis with 2% acetic acid and measured by absorbance at 490 nm. Using a hemoglobin standard derived from defined blood volumes, blood loss was calculated assuming a hematocrit of 46% and expressed in μL/g body weight. Groups of Balb/c mice were injected intravenously (tail vein) with equal volumes (200 μL) of ^superFVa or saline 2 minutes prior to intravenous injection of rhAPC (Xigris®). Immediately after APC injection tail cut was performed. All agents were diluted in sterile sodium chloride 0.9% for injection (Hospira Inc).

[8] = system: Balb/c mice; assay: Liver laceration bleeding assay, APC-induced bleeding in Balb/c mice; assay type: in vivo; conditions: for mortality rate: APC-induced bleeding after liver laceration
Procedure: Mice were anesthetized with Isofluorane 3% and the abdomen was opened by substernal blunt midline dissection. […] Immediately after laceration mice were positioned prone into a small weighing dish (8 cm diameter) filled with saline (37° C., 13 mL), transferred into the anesthesia chamber which rested on a heating pad (37° C.). Anesthesia was maintained at 3% Isofluorane and dishes were changed after 10 minutes to collect blood for the first and second 10 minutes separately. Blood loss was determined as described for the tail clip model. Groups of Balb/c mice were injected intravenously (tail vein) with equal volumes (200 μL) of ^superFVa or saline 2 minutes prior to intravenous injection of plasma-derived human APC, followed immediately by liver laceration. All agents were diluted in sterile sodium chloride 0.9% for injection (Hospira Inc).

[9] = plasma derived human APC 1.25 mg/kg
[10] = concentrations where ^superFVa restores

Molecule: COc1ccc(-n2nc(C(N)=O)c3c2C(=O)N(c2ccc(N4CCCCC4=O)cc2)CC3)cc1 [apixaban, Apixaban]
- concentration for optimal suppression of ETP [1]: 200 nM

Molecule: O=C(NC[C@H]1CN(c2ccc(N3CCOCC3=O)cc2)C(=O)O1)c1ccc(Cl)s1 [rivaroxaban, Rivaroxaban]
- concentration for optimal suppression of ETP [1]: 200 nM

Molecule: APC: Activated Protein C; recombinant human (Xigris®, Eli Lilly) or plasma-derived human APC
- optimal concentration for maximal suppression of ETP [2]: 5 nM
- optimal concentration for maximal suppression of ETP [3]: 100 nM
- optimal concentration for aPTT prolongation to ~100 seconds [4]: 10 nM
- optimal concentration for aPTT prolongation to ~100 seconds [5]: 25 nM
- mean whole blood aPTT clotting time [6]: 67 s
- mean blood loss ([7]; APC 1.25 mg/kg iv, combined 20 minutes after tail clip): 27 µL/g
- mean blood loss ([7]; APC 1.25 mg/kg, first 10 minutes after tail clip): 13.7 µL/g
- mean blood loss ([7]; APC 1.25 mg/kg, second 10 minutes after tail clip): 13.2 µL/g
- mean blood loss ([7]; APC, first 10 minutes after tail clip): 13.7 µL/g
- dose that resulted in notable bleeding ([7]; single intravenous administration, in vivo dose response): 1.25 mg/kg
- mean blood loss ([7]; wt APC 1.25 mg/kg iv, tail clip): 27 µL/g
- mean blood loss ([8]; APC 1.25 mg/kg iv, 20 minutes after liver laceration): 40 µL/g
- mean blood loss ([8]; APC 1.25 mg/kg iv, 20 minutes after liver laceration, listed as wt APC): 49 µL/g
- mean blood loss ([8]; APC 1.25 mg/kg, first 10 minutes after liver laceration): 35.1 µL/g
- mortality rate [8]: 54% and ~50%
- mortality rate ([8]; listed as wt APC): ~40%
- mice died during the 1st 10 minutes after injury [8, 9]: Four of 13
- more mice died during the 2nd 10 minutes [8, 9]: Three

Molecule: FVa: wild-type recombinant human activated Factor V used as comparator [reference compound]
- effect on thrombin generation suppressed by APC [2, 10]: did not show effects
- effect on thrombin generation suppressed by APC [3, 10]: did not show effects
- aPTT ([4]; 0.05 U/mL FVa variants, 10 nM APC, ~100 seconds without FVa): ~80 s
- aPTT ([5]; 5 U/mL FVa variants, APC, ~100 seconds without FVa): ~70 s
- effect on whole blood aPTT clotting times ([6]; 1 nM added to whole blood after iv APC 0.5 mg/kg): failed to show a significant effect
- mean whole blood aPTT ([6]; FVa variant added ex vivo to whole blood drawn after APC 0.5 mg/kg injection): 50 s

B1: murine recombinant wt APC: Recombinant murine APC purified and prepared as previously described (protein)
chain: ANSFLEEMRPGSLERECMEEICDFEEAQEIFQNVEDTLAFWIKYFDGDQCSAPPLDHQCDSPCCGHGTCIDGIGSFSCSCDKGWEGKFCQQELRFQDCRVNNGGCLHYCLEESNGRRCACAPGYELADDHMRCKSTVNFPCGKLGRWIEKKRKILKRDTDLEDELEPDPRIVNGTLTKQGDSPWQAILLDSKKKLACGGVLIHTSWVLTAAHCVEGTKKLTVRLGEYDLRRRDHWELDLDIKEILVHPNYTRSSSDNDIALLRLAQPATLSKTIVPICLPNNGLAQELTQAGQETVVTGWGYQSDRIKDGRRNRTFILTFIRIPLVARNECVEVMKNVVSENMLCAGIIGDTRDACDGDSGGPMVVFFRGTWFLVGLVSWGEGCGHTNNYGIYTKVGSYLKWIHSYIGEKGVSLKSQKL
- mean whole blood aPTT clotting time [6]: ~60 s
